Positions count from the first letter of the chain named. Several values for one entry are separate records, joined by “and”; a condition that tells them apart may be missing. Identical values can stand only once.
Key:
[1] = target: the molecule itself; assay: SEC + other: negative-stain EM
[2] = target: the molecule itself; assay: SEC + other: negative-stain EM; remark: listed apart in the source
[3] = target: the molecule itself; assay: cryo-EM structure
[4] = target: T1, CsgE-his (pNH27) (Escherichia coli), P0AE95; assay: cryo-EM class averages; settings: remark: other sources report otherwise
T1 chain: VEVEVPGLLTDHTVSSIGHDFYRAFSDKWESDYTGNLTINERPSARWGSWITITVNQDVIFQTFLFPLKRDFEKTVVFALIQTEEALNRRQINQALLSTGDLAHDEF

[5] = target: T1, CsgE-his (pNH27) (Escherichia coli), …; assay: cryo-EM structure; settings: remark: other sources report otherwise
[6] = target: T1, CsgE-his (pNH27) (Escherichia coli), …; assay: SEC; settings: remark: other sources report otherwise
[7] = target: T1, CsgE-his (pNH27) (Escherichia coli), …; assay: negative-stain EM; settings: remark: other sources report otherwise

B1: CsgGC1S, non-lipidated soluble periplasmic form, C-terminally StrepII-tagged (pPG2) (natural protein, Escherichia coli, UniProt P0AEA2 16-277, looked up)
chain: SLTAPPKEAARPTLMPRAQSYKDLTHLPAPTGKIFVSVYNIQDETGQFKPYPASNFSTAVPQSATAMLVTALKDSRWFIPLERQGLQNLLNERKIIRAAQENGTVAINNRIPLQSLTAANIMVEGSIIGYESNVKSGGVGARYFGIGADTQYQLDQIAVNLRVVNVSTGEILSSVNTSKTILSYEVQAGVFRFIDYQRLLEGEVGYTSNEPVMLCLMSAIETGVIFLINDGIDRGLWDLQNKAERQNDILVKYRHMSVPPES
stoichiometry N [1]: 16 and 8

B2: CsgG, native membrane-extracted, C-terminally StrepII-tagged (pPG1) (natural protein, Escherichia coli, UniProt P0AEA2 16-277, looked up)
chain: B1 chain with S1C
modifications: diacylglycerol- and amide-linked acyl chain on the N-terminal Cys (lipid anchor)
stoichiometry N [2]: 18
stoichiometry N [3]: 9

B3: CsgE-his (pNH27), P0AE95 23-129 (natural protein)
chain: T1 chain
stoichiometry N [4]: 9
stoichiometry N [5]: 9
stoichiometry N [6]: 9.16
stoichiometry N [7]: 9
